Measurements reported in patent publication US20130288274A1 (BIO RAD LABORATORIES, published 2013).
Substitutions are numbered along the chain they refer to.

Biological target: the molecule itself
Assay: SDS-PAGE and size-exclusion chromatography; self-association
Protocol: The affinity purified protein was analyzed by SDS-PAGE gel electrophoresis (FIG. 1). The D2-hexamers that were further purified on the size-exclusion column as described above were analyzed by SDS-PAGE (FIG. 1). […] This aggregation of the hexamers is so strong that it is not dissociated under the denaturing conditions used in SDS-PAGE. Additionally, both hexamer proteins migrated at the position of about 45 kd in a size-exclusion chromatogram. Without being bound to a particular theory, the surprising tendency of the hexamers to aggregate to form a trimer of hexamers may contribute to the improved immunoreactivity of the D2 hexamer.

B1: classic D2 hexamer with His tag (His-tagged recombinant deamidated gliadin protein) (other)
chain: MRGSHHHHHHGSPEFQPEQPQQSFPEQERPFGGGGSQPEQPQQSFPEQERPFGGGGSQPEQPQQSFPEQERPFGGGGSQPEQPQQSFPEQERPFGGGGSQPEQPQQSFPEQERPFGGGGSQPEQPQQSFPEQERPF
notes: also called classic DGP; DGP hexamer
  binding result: binds

B2: lysine-containing D2 hexamer with His tag (His-tagged Recombinant Deamidated Gliadin Peptide with a lysine substituted for a glutamic acid residue at position … (other)
chain: B1 chain with E14K
notes: also called lysine-containing DGP; lysine-containing DGP hexamer
  binding result: binds
